Data on 2 molecules can be found in patent publication US20120190819A1 (MEDICAL RESEARCH COUNCIL, published 2012).

Series [1] deals with T1, carboxymethylated papain on agarose beads (Calbiochem) (UniProt P00784 134-345, carboxymethylated).
T1 construct: also called immobilized papain; papain-agarose beads
T1 sequence (looked up): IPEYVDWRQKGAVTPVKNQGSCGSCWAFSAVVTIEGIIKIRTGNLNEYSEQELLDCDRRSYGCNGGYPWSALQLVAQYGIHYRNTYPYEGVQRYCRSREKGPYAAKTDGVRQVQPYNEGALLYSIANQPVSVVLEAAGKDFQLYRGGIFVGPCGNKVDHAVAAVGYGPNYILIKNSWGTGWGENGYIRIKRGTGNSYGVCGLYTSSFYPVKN
The experiment in a line: papain-agarose pull-down, western blot with anti-SteA. The protocol: Agarose beads carrying carboxymethylated papain (Calbiochem) were washed three times in EB (equilibration buffer: 50 mM sodium phosphate pH 6.5, 0.5M NaCl, 0.1% non-detergent sulfobetaines). The beads were blocked with 1 mg/ml BSA in EB for 30 mins at 4° C. and washed three more times in EB. 300 μg of recombinant SteA or STM AU1 in 1×TBS buffer was diluted into EB to produce a total of volume of 500 μL and incubated with the beads with turning end over end for 90 mins at 4° C. The beads were then washed three times in EB and resuspended in 50 μl of sample buffer for analysis by 12% SDS-PAGE gel and western blotting using an anti-steA monoclonal antibody (C5/2, Maryland Biosciences).

Series [2] concerns the molecule itself. Nature of the series: gel filtration after heating to 75° C. (self-association). The protocol:
To confirm that the engineered scaffold was correctly folded, we used gel filtration chromatography to ask whether we could detect any denatured or dimerized STM in its native form. Recombinant STM AU1 migrated close to its predicted size and similarly to wild type SteA (FIG. 3, panel A). When the protein preparations were heated to 75° C. before gel filtration, a proportion of SteA migrated as a dimer. […] The CD spectra of native SteA at 25° C. and 50° C. and native STM AU1 at 25° C. and 50° C.

Series [3] concerns the molecule itself. Nature of the series: SDS-PAGE after 75° C. or ice (self-association). How it is done:
We wished to ascertain whether we could insert peptides into STM without affecting its stability as a protein. We modelled a peptide aptamer by inserting the six residue “AU1” epitope tag (DTYRYI) (SEQ ID NO: 32) into the engineered loop. We wished to retain the thermostability of SteA but abolish its dimerization by domain-swapping, which is enhanced by heating. We incubated recombinant SteA, STM and STM AU1 at 75° C. or on ice for 20 minutes, and removed any denatured protein by centrifugation. […] As expected, this dimeric form is completely abolished in both STM and STM AU1 (FIG. 2A).

B1: STM comprising target peptide AU1 epitope (designed binder)
chain: MIPWGLSEAKPATPEIQEIVDKVKPQLEEKTNETYGKLEAVQYKTQVDAGTNYYIKVRAGDNKYMHLKVFNGPDTYRYIGPPGQNEDLVLTGYQVDKNKDDELTGF
notes: Expressed in E. coli from pET30a(+) with a hexa-histidine tag; also called STM AU1; STM/AU1
Regarding B1, the values for the binding result in series [1] and in series [2] were “no binding (tested: 300 µg)” and “no binding”, respectively.

B2: STM (Stefin A Triple Mutant), recombinant, no insert (designed binder)
chain: MIPWGLSEAKPATPEIQEIVDKVKPQLEEKTNETYGKLEAVQYKTQVDAGTNYYIKVRAGDNKYMHLKVFNGPPGQNEDLVLTGYQVDKNKDDELTGF
notes: Expressed in E. coli from pET30a(+) with a hexa-histidine tag; also called STM triple mutant
B2: the binding result in series [3] is on record as “no binding”.
